Laboratory results from the supplement of paper PMC10567573.

B1: ALKBH7 (parent)
chain: SVICRSLPEGMGPGESGQPPPAC
B2: SFRS1 (parent)
chain: RDIDLKNRRGGPPFAFVEFEDPRD

Variants of: B1
Test: protein stability index of a GFP-peptide fusion (GPS, HEK-293T) (PSI 1-6); higher = more stable
Details: c terminus: native
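Also: lentivirally expressed fusions sorted by FACS into six bins by GFP to DsRed ratio, PSI derived from sequencing read proportions per bin multiplied by bin number.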

Row | Variant | protein stability index
1 | P20D | 4.12
2 | P20S | 3.75
3 | P20F | 2.45
4 | P20M | 1.79
5 | P20Q | 1.64
6 | P20E | 3.55
7 | P20C | 2.42
8 | P20T | 2.08
9 | P20H | 3.78
10 | P20Y | 3.31
11 | P20K | 4.38
12 | P20G | 4.91
13 | P20I | 3.72
14 | P20N | 4.14
15 | P20R | 4.09
16 | Q18S | 2.36
17 | Q18C | 1.66
18 | Q18R | 2
19 | Q18L | 2.07
20 | Q18K | 2.16
21 | Q18I | 2.56
22 | Q18D | 2.05
23 | Q18Y | 3.38
24 | Q18A | 2.15

Row | Variant | protein stability index
25 | Q18M | 1.85
26 | Q18E | 2.15
27 | Q18F | 3.03
28 | Q18N | 2.05
29 | Q18H | 2.38
30 | P19K | 3.18
31 | P19A | 1.71
32 | P19V | 4.2
33 | P19L | 2.19
34 | P19Q | 4.22
35 | P19S | 4.04
36 | P19T | 1.95
37 | P19W | 2.26
38 | P19E | 5.1
39 | P19I | 3.09
40 | P19F | 1.99
41 | P19M | 1.64
42 | P19D | 4.84
43 | P19N | 4.27
44 | P19Y | 2.33
45 | P19H | 3.66
46 | P19R | 2.69
47 | P19C | 3.13
48 | S16R | 2.12

Row | Variant | protein stability index
49 | S16V | 3.02
50 | S16Y | 1.95
51 | S16T | 1.92
52 | S16Q | 1.8
53 | G17K | 2.94
54 | G17H | 1.4
55 | G17L | 2.14
56 | G17D | 2.36
57 | G17I | 2.46
58 | G17R | 1.38
59 | G17C | 1.73
60 | G17T | 1.61
61 | G17Q | 2.11
62 | G17N | 1.95
63 | G17A | 2.39
64 | G17Y | 1.09
65 | G17E | 2.45
66 | G17S | 1.71
67 | P21I | 2.5
68 | P21G | 4.95
69 | P21L | 1.28
70 | P21V | 3.21
71 | P21D | 2.63
72 | P21F | 2.69

Row | Variant | protein stability index
73 | P21N | 4.05
74 | P21S | 4.08
75 | P21E | 2.47
76 | P21Q | 3.36
77 | P21M | 1.18
78 | P21H | 3.44
79 | P21T | 2.51
80 | P21A | 1.68
81 | P21K | 3.92
82 | P21Y | 2.59
83 | P21C | 2.17
84 | A22R | 5
85 | A22G | 5.1
86 | A22C | 4.31
87 | A22F | 5.01
88 | A22L | 4.3
89 | A22W | 4.77
90 | A22E | 4.63
91 | A22Q | 4.92
92 | A22D | 5.53
93 | A22K | 5.64
94 | A22N | 5.43
95 | A22V | 3.77
96 | A22M | 4.74

Row | Variant | protein stability index
97 | A22T | 4.77
98 | A22Y | 4.68
99 | A22H | 4.75
100 | A22I | 3.19
101 | A22S | 3.69
102 | C23D | 4.63
103 | C23S | 2.99
104 | C23Y | 4.45
105 | C23K | 4.35
106 | C23V | 4.54
107 | C23H | 5.02
108 | C23Q | 3.8
109 | C23W | 4.15
110 | C23I | 5.17
111 | C23R | 4.76
112 | C23M | 5.48
113 | C23N | 5.35
114 | C23T | 4.52
115 | C23E | 4.31
116 | C23L | 4.69
117 | C23F | 4.57

Variants of: B2
Test: as above
Details: c terminus: a fixed tail appended

Row | Variant | protein stability index
118 | R8E | 4.73
119 | F14I | 4.37
120 | F14L | 3.92
121 | P22I | 3.94
122 | P22N | 4.15
123 | D4R | 3.45
124 | D24Q | 3.39
125 | R23C | 3.67
126 | R23N | 4.24
127 | D2W | 2.1
128 | D2T | 3.19
129 | D2C | 3.1
130 | F16G | 5.32
131 | D21C | 2.73
132 | A15Y | 3.56
133 | P13L | 3.28
134 | P13D | 4.58
135 | P13F | 3.42
136 | G10K | 3.42
137 | G10F | 3.9
138 | G11L | 2.21
139 | G11Y | 3.28
140 | G11M | 2.61
141 | G11E | 4.47
142 | P12C | 4.13

Row | Variant | protein stability index
143 | P12E | 4.72
144 | P12G | 4.39
145 | K6S | 4.35
146 | K6H | 4.71
147 | N7T | 3.73
148 | V17H | 4.38
149 | L5W | 3.41
150 | L5C | 3.11
151 | L5D | 4.49
152 | R9L | 4.27
153 | R9A | 4.57
154 | I3T | 3.73
155 | R1T | 3.94
156 | R1K | 3.57
157 | E20G | 3.14
158 | E20L | 2.71
159 | E20V | 3.02
160 | E20C | 2.67
161 | F19W | 3.39
162 | F19I | 3.27
163 | F19M | 3.19
164 | F19C | 3.05
165 | F19A | 2.95
166 | F19R | 3.38
167 | E18Y | 2.3
